Measurements: patent US20080096222A1 (BRIGHAM AND WOMEN S HOSPITAL, published 2008)

What was measured:
GST alone = biological target: T1, GST alone (UniProt P08515 1-218 = GST); assay: GST pulldown from lysates of myc-haspin-transfected cells
T1 construct: Control protein
Method: (§1) For immunoprecipitation, cells are suspended in 50 mM Tris/0.5 M NaCl/1% Triton X-100/1% DOC/0.1% SDS/2 mM EDTA, pH 7.4 (buffer L) with 1 μg/ml pepstatin/1 μg/ml leupeptin/1 μg/ml antipain/1 μg/ml chymostatin/1 mM phenylmethylsulphyl fluoride/1 mM NaF/0.1 μM okadaic acid and lysed by shearing 15 times through a 21 gauge needle. Insoluble material is removed by centrifugation for 15 min at 13,000 rpm and the lysates precleared with protein G-Sepharose and concentrations equalized based on Bradford assay (Bio-Rad). Lysates are incubated with antibodies for 1.5 h at 4° C. before addition of protein G-Sepharose for a further 1.5 h. Beads are washed 4 times with buffer L and thrice with Hepes-buffered saline, pH 7.4 (HBS). For GST pulldown assays, cells are lysed in 20 mM Tris/1% Triton X-100/1 mM EDTA/1 mM DTT, pH 7.4 (buffer T) containing 0.3 M NaCl and protease and phosphatase inhibitors as above, clarified, and precleared with glutathione-Sepharose. […]
(§2) To examine the interaction of haspin with H3, we utilized the H3-GST fusion proteins in “pulldown” assays from lysates of myc-haspin-transfected cells. In the conditions of the assay, myc-haspin bound to H3-GST, whereas the binding of myc-haspin to GST alone, H2B-GST and H4-GST was not detected.

[1] = biological target: T2, H2B-GST (residues 1-35 of human H2B fused to GST) (human, UniProt P62807 2-36); assay: as above
T2 construct: range 1-35; not shown: glutathione S-transferase (GST) encoded by vector pETGEX-CT
Method: as §1, §2

T2 sequence (P62807 2-36): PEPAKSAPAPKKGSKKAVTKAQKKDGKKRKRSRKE
T1 sequence (P08515 whole entry): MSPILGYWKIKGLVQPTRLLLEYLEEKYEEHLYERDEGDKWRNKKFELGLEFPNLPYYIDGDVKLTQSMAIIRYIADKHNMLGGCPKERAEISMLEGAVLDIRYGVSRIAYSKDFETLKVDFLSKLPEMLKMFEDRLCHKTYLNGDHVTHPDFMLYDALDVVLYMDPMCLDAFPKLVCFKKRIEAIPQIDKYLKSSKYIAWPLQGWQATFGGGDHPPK

binding result (GST alone): no binding
binding result [1]: no binding
B1: myc-tagged human haspin (enzyme)
chain: AASLPGPGSRLFRTYGAADGRRQRRPGREAAQWFPPQDRRRFFNSSGSSDASIGDPSQSDDPDDPDDPDFPGSPVRRRRRCPGGRVPKDRPSLTVTPKRWKLRARPSLTVTPRRLGLRARPPQKCSTPCGPLRLPPFPSRDSGRLSPDLSVCGQPRDGDELGISASLFSSLASPCPGSPTPRDSVISIGTSACLVAASAVPSDLHLPEVSLDRASLPCSQEEATGGAKDTRMVHQTRASLRSVLFGLMNSGTPEDSEFRADGKNMRESCCKRKLVVGNGPEGPGLSSTGKRRATGQDSCQERGLQEAVRREHQEASVPKGRIVPRGTDRLERTRSSRKSKHQEATETSLLHSHRFKKGQKLGKDSFPTQDLTPLQNACFWTKTRASFSFHKKKIVTDVSEVCSIYTTATSLSGSLLSECSNRPVMNRTSGAPSSWHSSSMYLLSPLNTLSISNKKASDAEKVYGECSQKGPVPFSHCLPTEKLQRCEKIGEGVFGEVFQTIADHTPVAIKIIAIEGPDLVNGSHQKTFEEILPEIIISKELSLLSGEVCNRTEGFIGLNSVHCVQGSYPPLLLKAWDHYNSTKGSANDRPDFFKDDQLFIVLEFEFGGIDLEQMRTKLSSLATAKSILHQLTASLAVAEASLRFEHRDLHWGNVLLKKTSLKKLHYTLNGKSSTIPSCGLQVSIIDYTLSRLERDGIVVFCDVSMDEDLFTGDGDYQFDIYRLMKKENNNRWGEYHPYSNVLWLHYLTDKMLKQMTFKTKCNTPAMKQIKRKIQEFHRTMLNFSSATDLLCQHSLFK
notes: Expressed in transfected HEK293 or HeLa cells and used from cell lysates; also called myc-haspin; full-length haspin; not shown: myc tag encoded by the pcDNA3-derived plasmid pCANmyc1
